Values belong to the molecule of their own block, whether it stands above or below them.
Columns and labels:
[1] = biological target: niacin-responsive repressor NiaR from Bacillus halodurans (Bacillus halodurans); experiment: SEC-MALS; Superdex-200 10/300 GL, 20 mM Tris-HCl pH 8.0, 200 mM NaCl, 1 mM DTT; 10-12 mg/ml, 0.1 ml injected, 0.5 ml/min
BhNiaR [2] = biological target: T1, BhNiaR (Halalkalibacterium halodurans, UniProt Q9KDJ7); experiment: X-ray crystal structure, co-crystallization, […] Å; format: binding; conditions: 2 mM niacin, 0.1 M Tris-HCl pH 8.5, 15% PEG 6000; Zn2+ in site; C-terminal 3H domain, carboxyl coordinates zinc and H-bonds His83, Tyr112 of second subunit in pocket
T1 construct: gene BH1216; full length, 179 residues; E. coli BL21(DE3) star pLysS, pET-28b(+); N-terminal His-tag removed with PreScission protease; residues 7-179 modelled
T1 sequence (Q9KDJ7 1-179): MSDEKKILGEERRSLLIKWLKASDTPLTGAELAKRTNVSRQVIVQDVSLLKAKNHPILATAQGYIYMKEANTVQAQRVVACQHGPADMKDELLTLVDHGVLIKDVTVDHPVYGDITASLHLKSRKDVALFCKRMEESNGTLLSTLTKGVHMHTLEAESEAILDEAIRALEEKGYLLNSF

BhNiaR [3] = biological target: T2, BhNiaR (Bacillus halodurans, UniProt Q9KDJ7 1-179); experiment: EMSA; 1 mM niacin; Zn2+-bound protein; EMSA: 20 mM Tris pH 8.0, 100 mM KCl, 1 mM MgCl2, 1 mM DTT, 5% glycerol, +/- 1 mM niacin; 80 nM DNA, 0-3 µM protein; 30 min at room temperature (Methods) or 277; conditions: protein: recombinant; tags: N-terminal His-tag removed with PreScission protease; chain copies: 2; label: none (SYBR Green stain); blunt
T2 sequence: T1 sequence (Q9KDJ7 1-179)

stoichiometry N [1]: 2
Molecule: niacin-responsive repressor NiaR from Bacillus halodurans (natural protein)

Molecule: O=C(O)c1cccnc1 [niacin]
X-ray crystal structure, co-crystallization, 1.8 Å (BhNiaR [2]): A niacin molecule is bound to the C-terminal domain of BhNiaR near the metal-binding site.

B1: nifS-nadB promoter 34-bp cognate DNA (type I) (dsDNA)
DNA 1: CTCATTTACATATGTCTTGACATCTATATTTACA
DNA 2: TGTAAATATAGATGTCAAGACATATGTAAATGAG
Kd (BhNiaR [3]): ~500 nM

Source: article PMC7713382, “Structural analysis and insight into effector binding of the niacin-responsive repressor NiaR from Bacillus halodurans” (Scientific Reports, 2020)
